Source: publication doi:10.1101/068965

Molecular target: EGFP-LOV2-OPTN_((412-520)) (Avena sativa | not stated) (UniProt Q96CV9)
Assay: SEC

Substance: EGFP-LOV2-OPTN_((412-520)) (from UniProt Q96CV9 412-520) (designed binder)
- stoichiometry N: 2
